From patent US20090304651A1 (published 2009)
Like-named read-outs stand apart in the source and are kept apart here.

What was measured:
[1] = target: T1, recombinant human IGF-II (Insulin-like Growth Factor II) (human, UniProt P01344 25-91, biotinylated (Biotinyl-IGF-II, GroPep) where immobilised in SPR, site not stated; not biotinylated in ITC and as SPR analyte); assay: SPR, steady-state KD relative to wild type
T1 construct: also called IGF2; IGF-2
Procedure: (§1) Duplicate analyte injections were performed at concentrations of 4096, 2048, 1024, 512, 256, 128, 64, 32, 16 and 8 nM.
(§2) Kinetic analysis by Surface Plasmon Resonance (SPR) was conducted on a BIAcore 3000 biosensor (BIAcore, Uppsala, Sweden) at 25° C. in HBS-EP (10 mM HEPES, pH 7.4, 150 mM NaCl, 3 mM EDTA, 0.005% surfactant P20) at a flow rate of 40 μl/min. […] Kinetic experiments consisted of a two minute injection of analyte followed by a 100 s dissociation phase in running buffer, after which the binding surface was regenerated with a 2 minute injection of 2 M MgCl₂. A blank flow cell was used for in-line reference subtraction of changes due to differences in refractive index of running buffer versus sample and a buffer-only injection was used to subtract instrument noise and drift. Injections were performed in duplicate for each concentration and in a randomised order. Kinetic parameters were determined by global fitting of sensorgrams to a two-state (conformational change) binding model using BIAevaluation software version 4.0.1. In all cases the minor component made an insignificant contribution to the overall affinity and as such only the kinetic parameters of the major binding component were used. For each interaction the dissociation affinity constant (KD) was also calculated by fitting of the response of each concentration at equilibrium to a steady-state affinity model using BIAevaluation.

[2] = target: T1, recombinant human IGF-II (Insulin-like …); assay: SPR, IGF-II immobilised, steady state
Procedure: as §1, §2

[3] = target: T1, recombinant human IGF-II (Insulin-like …); assay: SPR, IGF-II immobilised, kinetic fit
How it was run: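 Biotinylated IGF-II (~50 RU) was captured on a streptavidin Sensor Chip SA, and domain 11 proteins, secreted from Pichia pastoris and purified by His-tag, were injected over it in duplicate and in randomised order. A BIAcore 3000 was run at 25° C in HBS-EP at 40 μl/min, with 2 min injections, 100 s dissociation and regeneration with 2 M MgCl₂. Analyte concentrations spanned 4096–8 nM, or 16384–32 nM for three constructs. After subtraction of blank flow cell and buffer injection signals, association rates, dissociation rates and Kd were obtained by global fitting of sensorgrams in BIAevaluation 4.0.1.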

[4] = target: T1, recombinant human IGF-II (Insulin-like …); assay: SPR, steady-state KD relative to wild type; remark: listed apart in the source
How it was run: (§3)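 Biotinylated IGF-II (~50 RU) on a streptavidin Sensor Chip SA served as the surface for duplicate injections of His-tag-purified domain 11 proteins made by secretion in Pichia pastoris. On a BIAcore 3000 at 25° C, 2 min injections in HBS-EP flowed at 40 μl/min over a range of 4096–8 nM, or 16384–32 nM for three constructs. After subtracting the blank flow cell and buffer injections, equilibrium responses were fitted in BIAevaluation to a steady-state affinity model to give Kd, with relative affinity referenced to the unaltered domain 11 protein.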

[5] = target: T1, recombinant human IGF-II (Insulin-like …); assay: SPR, IGF-II immobilised, kinetic fit; remark: listed apart in the source
Procedure: as §1, §2

[6] = target: T1, recombinant human IGF-II (Insulin-like …); assay: SPR, IGF-II immobilised, steady state; remark: listed apart in the source
How it was run: as §3

[7] = target: T1, recombinant human IGF-II (Insulin-like …); assay: SPR, IGF-II immobilised
Procedure: (§4) Kinetic experiments consisted of a two minute injection of analyte followed by a 100 s dissociation phase in running buffer, after which the binding surface was regenerated with a 2 minute injection of 2 M MgCl₂. A blank flow cell was used for in-line reference subtraction of changes due to differences in refractive index of running buffer versus sample and a buffer-only injection was used to subtract instrument noise and drift. Injections were performed in duplicate for each concentration and in a randomised order. Kinetic parameters were determined by global fitting of sensorgrams to a two-state (conformational change) binding model using BIAevaluation software version 4.0.1. In all cases the minor component made an insignificant contribution to the overall affinity and as such only the kinetic parameters of the major binding component were used. For each interaction the dissociation affinity constant (KD) was also calculated by fitting of the response of each concentration at equilibrium to a steady-state affinity model using BIAevaluation. In order to investigate the influence of ionic strength, kinetic experiments were conducted in HBS-EP running buffers containing the desired NaCl concentration. In each case, analyte samples were made up in the appropriate running buffer prior to injection.
(§5) The affinity of versions of Fc-tagged domain 11 fusion proteins, and domain 11 constructs, for IGF-II were compared using surface plasmon resonance (BIAcore 3000). Attempts were made to immobilize Fc-tagged domain 11 proteins upon a sensor chip surface (CM5 and CM5-proteinA) but we encountered similar problems as described above with immobilised monomeric domain 11. Instead, immobilisation of biotinylated IGF-I and IGF-II on separate flow cells of a streptavidin coated sensor chip (BIAcore) generated reproducible sensorgram profiles when Fc-tagged and untagged domain 11 proteins were passed over the surface as analytes. The Fc-tagged domain 11 kinetic data performed in triplicate generated sensorgrams that were analyzed using a bivalent analyte model.

[8] = target: T1, recombinant human IGF-II (Insulin-like …); assay: SPR, steady-state KD relative to wild type; remark: listed apart in the source
Procedure: […]. Values are the mean±S.E.M. of three separate experiments.
as §2, with “BIAevaluation. In order to investigate the influence of ionic strength, kinetic experiments were conducted in HBS-EP running buffers containing the desired NaCl concentration. In each case, analyte samples were made up in the appropriate running buffer prior to injection.” for “BIAevaluation.”
Following purification, the binding of each mutant construct to IGF2 was assessed by SPR and compared to the wild type domain 11.

[9] = target: T1, recombinant human IGF-II (Insulin-like …); assay: SPR (Biacore)
[10] = target: T1, recombinant human IGF-II (Insulin-like …); assay: ITC, IGF-II titrated into domain 11
Procedure: Calorimetric measurements were performed using a VP-ITC microcalorimeter (MicroCal). All solutions were thoroughly degassed before use by stirring under vacuum. […] The sample cell contained either wild type domain 11 (7 uM) or the E1544A mutant (8 μM), also in HBS-E buffer. To correct for the heat effects of dilution and mixing, reaction heats obtained from a control experiment, in which IGF2 was injected into HBS-E, were subtracted. Calorimetric data were analysed using MicroCal ORIGIN software (version 5.0) supplied with the instrument. Thermodynamic parameters were derived by fitting the binding isotherms to a single-site binding model. Values for dissociation affinity constants (KD) were determined from duplicate experiments.
In order to validate the SPR sensorgram data, ITC was used to assess the binding affinity between domain 11 and IGF-II. The affinity of the E1544A mutant was also assessed by ITC in order to confirm whether use of a second technique agreed as to the apparent increase in affinity (FIG. 6 and Table 6). Titrations were performed using 17×15 μl injections of 40 μM IGF-II (after an initial 7.51 injection) into the reaction cell containing wild type domain 11 or the E1544A mutant. […] The two fold differences may be simply accounted for by the fidelity of both techniques.

[11] = target: T1, recombinant human IGF-II (Insulin-like …); assay: SPR, IGF-II immobilised, kinetic fit; remark: listed apart in the source
Procedure: as §2, with “BIAevaluation. In order to investigate the influence of ionic strength, kinetic experiments were conducted in HBS-EP running buffers containing the desired NaCl concentration. In each case, analyte samples were made up in the appropriate running buffer prior to injection.” for “BIAevaluation.”
(§6) Following purification, the binding of each mutant construct to IGF2 was assessed by SPR and compared to the wild type domain 11. Sensorgrams were generated using biotinylated IGF2 immobilised to the cell surface and mutant domain 11 proteins as the free analyte (FIG. 4).

[12] = target: T1, recombinant human IGF-II (Insulin-like …); assay: SPR, IGF-II immobilised, steady state; remark: listed apart in the source
Procedure: as §2, with “BIAevaluation. In order to investigate the influence of ionic strength, kinetic experiments were conducted in HBS-EP running buffers containing the desired NaCl concentration. In each case, analyte samples were made up in the appropriate running buffer prior to injection.” for “BIAevaluation.”
as §6

[13] = target: T2, recombinant human IGF-I (Insulin-like Growth Factor I) (human, UniProt P05019 49-118, biotinylated (Biotinyl-IGF-I, GroPep), site not stated); assay: SPR, biotinylated IGF-I immobilised
T2 construct: also called IGF1; Biotinyl-IGF-I
T2 sequence (P05019 49-118 limits assumed): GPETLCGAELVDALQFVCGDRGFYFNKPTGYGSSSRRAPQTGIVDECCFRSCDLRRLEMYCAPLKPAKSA
Procedure: as §4, §5

T1 sequence (P01344 25-91 limits assumed): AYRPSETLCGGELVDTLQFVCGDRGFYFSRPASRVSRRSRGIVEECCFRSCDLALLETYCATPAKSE

B1: IGF2R domain 11 E1544V (amino acids 1511-1650, C-terminal His6 tag, from Pichia pastoris) (receptor)
chain: NEHDDCQVTNPSTGHLFDLSSLSGRAGFTAAYSVKGLVYMSICGENENCPPGVGACFGQTRISVGKANKRLRYVDQVLQLVYKDGSPCPSKSGLSYKSVISFVCRPEAGPTNRPMLISLDKQTCTLFFSWHTPLACEQATHHHHHH
B1 was tested, and the “Relative Affinity” value [1] was 1.96 fold (wild type = 1.00), the Kd [2] was 52.7 nM and the Kd [3] was 60.5 nM. The koff [3] was 0.0675 s⁻¹, the kon [3] was 1.12e+06 M⁻¹ s⁻¹ and the “Relative Affinity” value [4] was 1.96 fold (wild type = 1.00). For the same binder, the Kd [5] was 49.8 nM, the koff [5] was 0.041 s⁻¹ and the kon [5] was 837000 M⁻¹ s⁻¹. It also gave a Kd [6] of 52.7 nM.

B2: IGF2R domain 11 with cysteine at position 1544 (E1544C) (receptor)
chain: NEHDDCQVTNPSTGHLFDLSSLSGRAGFTAAYSCKGLVYMSICGENENCPPGVGACFGQTRISVGKANKRLRYVDQVLQLVYKDGSPCPSKSGLSYKSVISFVCRPEAGPTNRPMLISLDKQTCTLFFSWHTPLACEQATHHHHHH
B2: binds [7].

B3: IGF2R domain 11 S1596A (amino acids 1511-1650, C-terminal His6 tag, from Pichia pastoris) (receptor)
chain: NEHDDCQVTNPSTGHLFDLSSLSGRAGFTAAYSEKGLVYMSICGENENCPPGVGACFGQTRISVGKANKRLRYVDQVLQLVYKDGAPCPSKSGLSYKSVISFVCRPEAGPTNRPMLISLDKQTCTLFFSWHTPLACEQATHHHHHH
With B3 the “Relative Affinity” value [8] was 0.61 fold (wild type = 1.00), the Kd [9] was 170 nM and the Kd [10] was 324 nM. It also gave a Kd [11] of 179 nM, a koff [11] of 0.079 s⁻¹ and a kon [11] of 441000 M⁻¹ s⁻¹. The Kd [12] was 170 nM.

B4: IGF2R domain 11 I1572A (amino acids 1511-1650, C-terminal His6 tag, from Pichia pastoris) (receptor)
chain: NEHDDCQVTNPSTGHLFDLSSLSGRAGFTAAYSEKGLVYMSICGENENCPPGVGACFGQTRASVGKANKRLRYVDQVLQLVYKDGSPCPSKSGLSYKSVISFVCRPEAGPTNRPMLISLDKQTCTLFFSWHTPLACEQATHHHHHH
notes: also called null mutant
B4: no binding (tested: 16384 nM highest analyte concentration) [13].
